Measurements as given in publication PMC9927573.

Legend:
[1] = target: Zika virus envelope glycoprotein E, as displayed on recombinant F2A virus-like particles (Zika virus (strain BeH818995)); experiment: SDS-PAGE with Western blot; fractions of the two-step chromatographic purification of F2A VLPs (HiTrap Capto Q, then HiScreen Capto Core 700 flow-through); immunoblot of E
[2] = target: Zika virus envelope glycoprotein E, as displayed on recombinant F2A virus-like particles (Zika virus (strain BeH818995)); experiment: non-reducing SDS-PAGE with Western blot; cell culture medium of transfected 293T cells, 72 and 96 h posttransfection at 37°C, 20 μg of total protein per sample; nonreducing conditions; E detected with monoclonal 4G2 antibody

Zika virus envelope glycoprotein E, as displayed on recombinant F2A virus-like particles (natural protein)
stoichiometry N [1]: 2 | stoichiometry N [2]: 2
